Data published in patent publication US20180273635A1 (Zymeworks, published 2018).

Key:
Recombinant human HER2 [1] = biological target: T1, Recombinant human HER2 (human, UniProt P04626 23-652); assay: SPR as in Example 3, average of three independent runs
T1 construct: extracellular domain; Analyte of the SPR assays; also called HER2 ECD; ECD2 of HER2
Experimental: (§1) The affinity towards HER2 ECD of the samples was measured by SPR on a Biacore T200 as follows. Between 2000 and 4000 RU of anti-human Fc injected at concentration between 5 and 10 μg/ml was immobilized on a CM5 chip using standard amine coupling. Antigen-binding constructs were captured on the anti-human Fc (injected at concentration at 0.51 microg/mL in PBST, 1 min at 10 microl/min) at response levels ranging from 120-270 RU. […] HER2 dilutions were analyzed in duplicates. Sensograms were fit globally to a 1: 1 Langmuir binding model, using the software provided with the Biacore T200. All experiments were conducted at 25° C.

Recombinant human HER2 [2] = biological target: T1, Recombinant human HER2; assay: SPR, Ka ratio to WT pertuzumab
Experimental: as §1

Recombinant human HER2 [3] = biological target: T2, Recombinant human HER2 (human, UniProt P04626 23-652); assay: SPR, variant captured on anti-human Fc, HER2 flowed, 25 C, pre-SEC
T2 construct: extracellular domain; analyte of the SPR assays; also called HER2 ECD; ECD2 of HER2
Experimental: as §1

Recombinant human HER2 [4] = biological target: T2, Recombinant human HER2; assay: SPR, post-SEC; ratio to WT v10013
Experimental: as §1
(§2) The affinity of antigen-binding constructs in OA format was determined by SPR following protein A purification. […] Antigen-binding constructs in FSA format were purified by protein A affinity and SEC prior to assessment of affinity by SPR.

Recombinant human HER2 [5] = biological target: T2, Recombinant human HER2; assay: SPR, variant captured on anti-human Fc, HER2 flowed, 25 C, post-SEC
Experimental: as §1, §2

Recombinant human HER2 [6] = biological target: T2, Recombinant human HER2; assay: SPR, pre-SEC; ratio to WT v10013
Experimental: as §1, §2

| Binder | Kd (Recombinant human HER2 [1]) | SPR Ka, mut/Ka, WT (Recombinant human HER2 [2]) | Kd (Recombinant human HER2 [3]) | Ka, mut/Ka, WT (Recombinant human HER2 [4]) | Kd (Recombinant human HER2 [5]) | Ka, mut/Ka, WT (Recombinant human HER2 [6]) |
| --- | --- | --- | --- | --- | --- | --- |
| Variant 4431 (antibody, name in Kabat numbering, V domains shown, also called literature pertuzumab variant) VH: EVQLVESGGGLVQPGGSLRLSCAASGFTFTDYTMDWVRQAPGKGLEWVADVNPNSGGSIYNQRFKGRFTLSVDRSKNTLYLQMNSLRAEDTAVYYCARNLGPSFYFDYWGQGTLVTVSS VL: DIQMTQSPSSLSASVGDRVTITCKASQDVSAGVAWYQQKPGKAPKLLIYSASYRYTGVPSRFSGSGSGTDFTLTISSLQPEDFATYYCQQYYIYPYTFGQGTKVEIK | 5 nM | 3.9 fold |  |  |  |  |
| Variant 4435 (antibody, V domains shown, also called literature pertuzumab variant) VH: EVQLVESGGGLVQPGGSLRLSCAASGFTFTDYTMDWVRQAPGKGLEWVADVNPNSGASIYNQRFKGRFTLSVDRSKNTLYLQMNSLRAEDTAVYYCARNLGPSFYFDYWGQGTLVTVSS VL: DIQMTQSPSSLSASVGDRVTITCKASQDVSIGVAWYQQKPGKAPKLLIYSASYRYTGVPSRFSGSGSGTDFTLTISSLQPEDFATYYCQQYYIYPYTFGQGTKVEIK | 15 nM | 0.9 fold |  |  |  |  |
| Variant 4434 (antibody, name in Kabat numbering, V domains shown, also called literature pertuzumab variant) VH: EVQLVESGGGLVQPGGSLRLSCAASGFTFADYTMDWVRQAPGKGLEWVADVNPNSGGSIYNQRFKGRFTLSVDRSKNTLYLQMNSLRAEDTAVYYCARNLGPSFYFDYWGQGTLVTVSS VL: DIQMTQSPSSLSASVGDRVTITCKASQDVSIGVAWYQQKPGKAPKLLIYSASYRYTGVPSRFSGSGSGTDFTLTISSLQPEDFATYYCQQYYIYPYTFGQGTKVEIK | 4 nM | 3.3 fold |  |  |  |  |
| Variant 4433 (antibody, name in Kabat numbering, V domains shown, also called literature pertuzumab variant) VH: EVQLVESGGGLVQPGGSLRLSCAASGFTFTDYTMDWVRQAPGKGLEWVADVNPNSGGSIYNQRFKGRFTLSVDRSKNTLYLQMNSLRAEDTAVYYCARNLGPSFYFDYWGQGTLVTVSS VL: DIQMTQSPSSLSASVGDRVTITCKASQDVSIGVAWYQQKPGKAPKLLIYSASYRYTGVPSRFSGSGSGTDFTLTISSLQPEDFATYYCQQYYIYPFTFGQGTKVEIK | 10 nM | 1.3 fold |  |  |  |  |
| Variant 4436 (antibody, name in Kabat numbering, V domains shown, also called literature pertuzumab variant) VH: EVQLVESGGGLVQPGGSLRLSCAASGFTFTDYTMDWVRQAPGKGLEWVADVNPNSGGSIYNQRVKGRFTLSVDRSKNTLYLQMNSLRAEDTAVYYCARNLGPSFYFDYWGQGTLVTVSS VL: DIQMTQSPSSLSASVGDRVTITCKASQDVSIGVAWYQQKPGKAPKLLIYSASYRYTGVPSRFSGSGSGTDFTLTISSLQPEDFATYYCQQYYIYPYTFGQGTKVEIK | 5.7 nM | 2.4 fold |  |  |  |  |
| Variant 4432 (antibody, name in Kabat numbering, V domains shown, also called literature pertuzumab variant) VH: EVQLVESGGGLVQPGGSLRLSCAASGFTFTDYTMDWVRQAPGKGLEWVADVNPNSGGSIYNQRFKGRFTLSVDRSKNTLYLQMNSLRAEDTAVYYCARNLGPSFYFDYWGQGTLVTVSS VL: DIQMTQSPSSLSASVGDRVTITCKASQDVSIGVAWYQQKPGKAPKLLIYSASYRYTGVPSRFSGSGSGTDFTLTISSLQPEDFATYYCQQYYIYPATFGQGTKVEIK | 7.7 nM | 1.7 fold |  |  |  |  |

Now from value to binder:

| Kd (Recombinant human HER2 [1]) | SPR Ka, mut/Ka, WT (Recombinant human HER2 [2]) | Kd (Recombinant human HER2 [3]) | Ka, mut/Ka, WT (Recombinant human HER2 [4]) | Kd (Recombinant human HER2 [5]) | Ka, mut/Ka, WT (Recombinant human HER2 [6]) | Binder |
| --- | --- | --- | --- | --- | --- | --- |
|  |  | 9.2 nM | 2.3 | 9 nM | 2.1 | variant 12529 (antibody, human IgG1, kappa, also called v12529) heavy: EVQLVESGGGLVQPGGSLRLSCAASGFTFTDYTMDWVRQAPGKGLEWVADVNPNSGGSIYNQRFKGRFTLSVDRSKNTLYLQMNSLRAEDTAVYYCARNLGPSFYFDYWGQGTLVTVSSASTKGPSVFPLAPSSKSTSGGTAALGCLVKDYFPEPVTVSWNSGALTSGVHTFPAVLQSSGLYSLSSVVTVPSSSLGTQTYICNVNHKPSNTKVDKKVEPKSCDKTHTCPPCPAPELLGGPSVFLFPPKPKDTLMISRTPEVTCVVVDVSHEDPEVKFNWYVDGVEVHNAKTKPREEQYNSTYRVVSVLTVLHQDWLNGKEYKCKVSNKALPAPIEKTISKAKGQPREPQVYVYPPSRDELTKNQVSLTCLVKGFYPSDIAVEWESNGQPENNYKTTPPVLDSDGSFALVSKLTVDKSRWQQGNVFSCSVMHEALHNHYTQKSLSLSPG light: not shown not shown |
|  |  | 2.4 nM | 7.4 | 2.8 nM | 8.3 | variant 12534 (antibody, human IgG1, kappa, also called v12534) heavy: EVQLVESGGGLVQPGGSLRLSCAASGFTFADYTMDWVRQAPGKGLEWVADVNPNSGGSIYNQRVKGRFTLSVDRSKNTLYLQMNSLRAEDTAVYYCARNLGPSFYFDYWGQGTLVTVSSASTKGPSVFPLAPSSKSTSGGTAALGCLVKDYFPEPVTVSWNSGALTSGVHTFPAVLQSSGLYSLSSVVTVPSSSLGTQTYICNVNHKPSNTKVDKKVEPKSCDKTHTCPPCPAPELLGGPSVFLFPPKPKDTLMISRTPEVTCVVVDVSHEDPEVKFNWYVDGVEVHNAKTKPREEQYNSTYRVVSVLTVLHQDWLNGKEYKCKVSNKALPAPIEKTISKAKGQPREPQVYVYPPSRDELTKNQVSLTCLVKGFYPSDIAVEWESNGQPENNYKTTPPVLDSDGSFALVSKLTVDKSRWQQGNVFSCSVMHEALHNHYTQKSLSLSPG light: not shown not shown |
|  |  | 6.2 nM | 2.9 | 7.2 nM | 3.2 | variant 12533 (antibody, human IgG1, kappa, also called v12533) heavy: EVQLVESGGGLVQPGGSLRLSCAASGFTFTDYTMDWVRQAPGKGLEWVADVNPNSGGSIYNQRFKGRFTLSVDRSKNTLYLQMNSLRAEDTAVYYCARNLGPSFYFDYWGQGTLVTVSSASTKGPSVFPLAPSSKSTSGGTAALGCLVKDYFPEPVTVSWNSGALTSGVHTFPAVLQSSGLYSLSSVVTVPSSSLGTQTYICNVNHKPSNTKVDKKVEPKSCDKTHTCPPCPAPELLGGPSVFLFPPKPKDTLMISRTPEVTCVVVDVSHEDPEVKFNWYVDGVEVHNAKTKPREEQYNSTYRVVSVLTVLHQDWLNGKEYKCKVSNKALPAPIEKTISKAKGQPREPQVYVYPPSRDELTKNQVSLTCLVKGFYPSDIAVEWESNGQPENNYKTTPPVLDSDGSFALVSKLTVDKSRWQQGNVFSCSVMHEALHNHYTQKSLSLSPG light: DIQMTQSPSSLSASVGDRVTITCKASQDVSIGVAWYQQKPGKAPKLLIYSASYRYTGVPSRFSGSGSGTDFTLTISSLQPEDFATYYCQQYYIYPAAFGQGTKVEIKRTVAAPSVFIFPPSDEQLKSGTASVVCLLNNFYPREAKVQWKVDNALQSGNSQESVTEQDSKDSTYSLSSTLTLSKADYEKHKVYACEVTHQGLSSPVTKSFNRGEC not shown |
|  |  | 11 nM | 1.8 | 11 nM | 1.8 | variant 12611 (antibody, human IgG1, kappa, OA pertuzumab variant, LC Y96A (Kabat); also called v12611) heavy: EVQLVESGGGLVQPGGSLRLSCAASGFTFTDYTMDWVRQAPGKGLEWVADVNPNSGGSIYNQRFKGRFTLSVDRSKNTLYLQMNSLRAEDTAVYYCARNLGPSFYFDYWGQGTLVTVSSASTKGPSVFPLAPSSKSTSGGTAALGCLVKDYFPEPVTVSWNSGALTSGVHTFPAVLQSSGLYSLSSVVTVPSSSLGTQTYICNVNHKPSNTKVDKKVEPKSCDKTHTCPPCPAPELLGGPSVFLFPPKPKDTLMISRTPEVTCVVVDVSHEDPEVKFNWYVDGVEVHNAKTKPREEQYNSTYRVVSVLTVLHQDWLNGKEYKCKVSNKALPAPIEKTISKAKGQPREPQVYVYPPSRDELTKNQVSLTCLVKGFYPSDIAVEWESNGQPENNYKTTPPVLDSDGSFALVSKLTVDKSRWQQGNVFSCSVMHEALHNHYTQKSLSLSPG light: not shown not shown |
|  |  | 5.1 nM | 4.5 | 4.6 nM | 3.9 | variant 12610 (antibody, human IgG1, kappa, OA pertuzumab variant, HC T30A (Kabat); also called v12610) heavy: EVQLVESGGGLVQPGGSLRLSCAASGFTFADYTMDWVRQAPGKGLEWVADVNPNSGGSIYNQRFKGRFTLSVDRSKNTLYLQMNSLRAEDTAVYYCARNLGPSFYFDYWGQGTLVTVSSASTKGPSVFPLAPSSKSTSGGTAALGCLVKDYFPEPVTVSWNSGALTSGVHTFPAVLQSSGLYSLSSVVTVPSSSLGTQTYICNVNHKPSNTKVDKKVEPKSCDKTHTCPPCPAPELLGGPSVFLFPPKPKDTLMISRTPEVTCVVVDVSHEDPEVKFNWYVDGVEVHNAKTKPREEQYNSTYRVVSVLTVLHQDWLNGKEYKCKVSNKALPAPIEKTISKAKGQPREPQVYVYPPSRDELTKNQVSLTCLVKGFYPSDIAVEWESNGQPENNYKTTPPVLDSDGSFALVSKLTVDKSRWQQGNVFSCSVMHEALHNHYTQKSLSLSPG light: not shown not shown |
